In US12269859B2, “Synthetic immune receptors and methods of use thereof” (Angeles Therapeutics, Inc., priority 2016, dated 2025):

B1: 030217-E05 (protein)
chain: MALPVTALLLPLALLLHAARPDEIVLTQSPATLSLSPGERATLSCSASSSVSYMHWYQQKPGQAPRLLIYDTSKLASGIPARFSGSGSGTDFTLTISSLEPEDVAVYYCFQGSVYPFTFGQGTKLEIKRGGGGSGGGGSGGGGSQVQLQESGPGLVKPSQTLSLTCTVSGGSISTSGMGVGWIRQHPGKGLEWIGHIWWDDDKRYNPALKSRVTISVDTSKNQFSLKLSSVTAADTAVYYCARMELWSYYFDYWGQGTLVTVSSLEGKPIPNPLLGLDSTGSGEDLKNVFPPEVAVFEPSKAEIAHTQKATLVCLATGFYPDHVELSWWVNGKEVHSGVCTDPQPLKEQPALNDSRYCLSSRLRVSATFWQNPRNHFRCQVQFYGLSENDEWTQDRAKPVTQIVSAEAWGRADCGITSASYHQGVLSATILYEILLGKATLYAVLVSALVLMAMVKRKDSRGRAKRSGSGATNFSLLKQAGDVEENPGPTSTMALPVTALLLPLALLLHAARPDEIVLTQSPGSLAVSPGERVTMSCKSSQSVFFSSSQKNYLAWYQQIPGQSPRLLIYWASTRESGVPDRFTGSGSGTDFTLTISSVQPEDLAIYYCHQYLSSRTFGQGTKLEIKRGGGGSGGGGSGGGGSQVQLQQPGAEVVKPGASVKMSCKASGYTFTSYYIHWIKQTPGQGLEWVGVIYPGNDDISYNQKFQGKATLTADKSSTTAYMQLSSLTSEDSAVYYCAREVRLRYFDVWGQVTTVTVSSTREQKLISEEDGSGIQNPDPAVYQLRDSKSSDKSVCLFTDFDSQTNVSQSKDSDVYITDKCVLDMRSMDFKSNSAVAWSNKSDFACANAFNNSIIPEDTFFPSSDVPCDVKLVEKSFETDTNLNFQNLSVIGFRILLLKVAGFNLLMTLRLWSSRAKRSGSGVKQTLNFDLLKLAGDVESNPGPSRGHMTEYKPTVRLATRDDVPRAVRTLAAAFADYPATRHTVDPDRHIERVTELQELFLTRVGLDIGKVWVADDGAAVAVWTTPESVEAGAVFAEIGPRMAELSGSRLAAQQQMEGLLAPHRPKEPAWFLATVGVSPDHQGKGLGSAVVLPGVEAAERAGVPAFLETSAPRNLPFYERLGFTVTADVEVPEGPRTWCMTRKPGA
B2: 010417-B04 (protein)
chain: MALPVTALLLPLALLLHAARPLEGKPIPNPLLGLDSTGSGEDLKNVFPPEVAVFEPSKAEIAHTQKATLVCLATGFYPDHVELSWWVNGKEVHSGVCTDPQPLKEQPALNDSRYCLSSRLRVSATFWQNPRNHFRCQVQFYGLSENDEWTQDRAKPVTQIVSAEAWGRADCGITSASYHQGVLSATILYEILLGKATLYAVLVSALVLMAMVKRKDSRGRAKRSGSGATNFSLLKQAGDVEENPGPTSTMALPVTALLLPLALLLHAARPDEIVLTQSPATLSLSPGERATLSCSASSSVSYMHWYQQKPGQAPRLLIYDTSKLASGIPARFSGSGSGTDFTLTISSLEPEDVAVYYCFQGSVYPFTFGQGTKLEIKRGGGGSGGGGSGGGGSQVQLQESGPGLVKPSQTLSLTCTVSGGSISTSGMGVGWIRQHPGKGLEWIGHIWWDDDKRYNPALKSRVTISVDTSKNQFSLKLSSVTAADTAVYYCARMELWSYYFDYWGQGTLVTVSSTREAAAKDDIVMTQSPDSLTVSLGERTTINCKSSQSVLDSSKNKNSLAWYQQKPGQPPKLLLSWASTRESGIPDRFSGSGSGTDFTLTIDSLQPEDSATYYCQQSAHFPITFGQGTRLEIKGGGGSGGGGSGGGGSQVQLVQSGAEVKKPGASVKVSCKASGYTFTNYGMNWVKQAPGQGLKWMGWINTYTGEPTYADDFKGRVTMTSDTSTSTAYLELHNLRSDDTAVYYCARWSWSDGYYVYFDYWGQGTTVTVSSTREQKLISEEDGSGIQNPDPAVYQLRDSKSSDKSVCLFTDFDSQTNVSQSKDSDVYITDKCVLDMRSMDFKSNSAVAWSNKSDFACANAFNNSIIPEDTFFPSSDVPCDVKLVEKSFETDTNLNFQNLSVIGFRILLLKVAGFNLLMTLRLWSSRAKRSGSGVKQTLNFDLLKLAGDVESNPGPSRGHMTEYKPTVRLATRDDVPRAVRTLAAAFADYPATRHTVDPDRHIERVTELQELFLTRVGLDIGKVWVADDGAAVAVWTTPESVEAGAVFAEIGPRMAELSGSRLAAQQQMEGLLAPHRPKEPAWFLATVGVSPDHQGKGLGSAVVLPGVEAAERAGVPAFLETSAPRNLPFYERLGFTVTADVEVPEGPRTWCMTRKPGA

System: target antigen-expressing cell line
Test: Jurkat NFAT-GFP assay, coculture with target cell lines expressing the respective target antigen (summary Table 10A)
Format: cell-based, human
Design: key: The signs +/−, +, 2+ etc. after the name of the cell lines indicate the relative degree of positivity on the Jurkat-NFAT-GFP assay as measured by the % GFP positive cells; +: relative degree of positivity on the Jurkat-NFAT-GFP assay as measured by the % GFP positive cells; 2+: relative degree of positivity on the Jurkat-NFAT-GFP assay as measured by the % GFP positive cells
Conditions: relative % GFP positive cells; for NFAT-GFP ASSAY Positive Cell lines: RAJI: SIR-expressing Jurkat-NFAT-GFP cells cocultured with RAJI
In short: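 Stable SIR expression in Jurkat-NFAT-GFP cells by lentiviral transfer and puromycin selection; coculture with target cells (E:T approximately 1:2) for 4 to 18 hours; flow cytometric measurement of NFAT-driven GFP; scoring as positive when % GFP-positive cells exceeds that of parental reporter cells.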

Row | Molecule | NFAT-GFP ASSAY Positive Cell lines: RAJI | NFAT-GFP ASSAY Positive Cell lines: HL60 (SIR-expressing Jurkat-NFAT-GFP cells cocultured with HL60) | NFAT-GFP ASSAY Positive Cell lines: NALM6 (SIR-expressing Jurkat-NFAT-GFP cells cocultured with NALM6)
1 | B1 | RAJI (+) | – | –
2 | B2 | RAJI (+), NALM6 | +/− | +
